Reference: publication PMC6994465, “Structural basis of proton-coupled potassium transport in the KUP family” (Nature Communications, 2020)

Molecular target: the molecule itself
Assay: cryo-EM structure; KimA in SMA lipid particles (SMALPs) at 1.1 mg/mL, 50 mM Tris pH 8, 100 mM KCl, with 50 uM cyclic di-AMP; C2 symmetry; 3.7 A

B1: KimA from Bacillus subtilis (natural protein)
chain: MYHSIKRFLIGKPLKSQAAGEQKLTKLKALAMLSSDALSSVAYGTEQILIILATISAAAFWYSIPIAVGVLILLLALILSYRQIIYAYPQGGGAYIVSKENLGEKPGLIAGGSLLVDYILTVAVSISAGTDAITSAFPALHDYHVPIAIFLVLVIMILNLRGLSESASILAYPVYLFVVALLVLIAVGLFKLMTGQIDQPAHHTSLGTPVAGITLFLLLKAFSSGCSALTGVEAISNAIPAFKNPPARNAARTLAMMGILLAILFSGITVLAYGYGTAPKPDETVVSQIASETFGRNVFYYVIQGVTSLILVLAANTGFSAFPQLAFNLARDQYMPRMFTVRGDRLGFSNGIIFLGFASIVLIILFGGQTEHLIPLYAVGVFIPFTLSQTGMCMKWIKQKPKGWIGKMLINSCGALISFMVLSILFVTKFNVVWPVLIFMPIVVLLFFAIKNHYTAVGEQLRIVDKEPEEIKGTVVIVPVAGVTTVVQKSIHYAKSLSDQVIAVHVSFDREQEKKFEKRWEELNNGVRLVTLHSSYRSLVHPFDKFLETVEAKAKKEQFSVMVLFPQFITKKRWHTILHNQSAFLLRVRLFWKKDIMVATLPYHFKK
notes: KimA, potassium importer of the KUP family, Bacillus subtilis; gene amplified from genomic DNA; Homodimer in the cryo-EM structure; The model holds 572 of 607 residues (it lacks the first 26 residues and residues 480-481, 534-538 and 607); Primers are in the Supplementary Methods; also called wild-type KimA; potassium importer KimA; source: E. coli LB2003, purified (membranes solubilised with SMA …)
stoichiometry N: 2
